From patent US20200277346A1 (GOVERNING COUNCIL OF THE UNIVERSITY OF TORONTO, published 2020)

B1: HERC1 HECT domain (enzyme, human, UniProt Q15751 4460-4861, looked up)
chain: IGKTMVQGKNYGPQITVKRISTRGRKCKPIFVQIARQVVKLNASDLRLPSRAWKVKLVGEGADDAGGVFDDTITEMCQELETGIVDLLIPSPNATAEVGYNRDRFLFNPSACLDEHLMQFKFLGILMGVAIRTKKPLDLHLAPLVWKQLCCVPLTLEDLEEVDLLYVQTLNSILHIEDSGITEESFHEMIPLDSFVGQSADGKMVPIIPGGNSIPLTFSNRKEYVERAIEYRLHEMDRQVAAVREGMSWIVPVPLLSLLTAKQLEQMVCGMPEISVEVLKKVVRYREVDEQHQLVQWFWHTLEEFSNEERVLFMRFVSGRSRLPANTADISQRFQIMKVDRPYDSLPTSQTCFFQLRLPPYSSQLVMAERLRYAINNCRSIDMDNYMLSRNVDNAEGSDTDY
notes: domain: HECT domain; His- and Avi-tagged for selection and ELISA; also called H1
B2: HERC2 HECT domain (enzyme, human, UniProt O95714 4412-4834, looked up)
chain: RQHGPVVELNRIQVKRSRSKGGLAGPDGTKSVFGQMCAKMSSFGPDSLLLPHRVWKVKFVGESVDDCGGGYSESIAEICEELQNGLTPLLIVTPNGRDESGANRDCYLLSPAARAPVHSSMFRFLGVLLGIAIRTGSPLSLNLAEPVWKQLAGMSLTIADLSEVDKDFIPGLMYIRDNEATSEEFEAMSLPFTVPSASGQDIQLSSKHTHITLDNRAEYVRLAINYRLHEFDEQVAAVREGMARVVPVPLLSLFTGYELETMVCGSPDIPLHLLKSVATYKGIEPSASLIQWFWEVMESFSNTERSLFLRFVWGRTRLPRTIADFRGRDFVIQVLDKYNPPDHFLPESYTCFFLLKLPRYSCKQVLEEKLKYAIHFCKSIDTDDYARIALTGEPAADDSSDDSDNEDVDSFASDSTQDYLTGH
notes: domain: HECT domain; His- and Avi-tagged for selection and ELISA; also called H2
B3: HERC4 HECT domain (enzyme, human, UniProt Q5GLZ8 685-1057, looked up)
chain: AIDQAHRQNVSSLFLPVIESVNPCLILVVRRENIVGDAMEVLRKTKNIDYKKPLKVIFVGEDAVDAGGVRKEFFLLIMRELLDPKYGMFRYYEDSRLIWFSDKTFEDSDLFHLIGVICGLAIYNCTIVDLHFPLALYKKLLKKKPSLDDLKELMPDVGRSMQQLLDYPEDDIEETFCLNFTITVENFGATEVKELVLNGADTAVNKQNRQEFVDAYVDYIFNKSVASLFDAFHAGFHKVCGGKVLLLFQPNELQAMVIGNTNYDWKELEKNTEYKGEYWAEHPTIKIFWEVFHELPLEKKKQFLLFLTGSDRIPILGMKSLKLVIQSTGGGEEYLPVSHTCFNLLDLPKYTEKETLRSKLIQAIDHNEGFSLI
notes: domain: HECT domain; His- and Avi-tagged for selection and ELISA; also called H4
B4: HERC6 HECT domain (enzyme, human, UniProt Q8IVU3 650-1022, looked up)
chain: KAYMLMHETILQKKDEFPPSPRFILRVRRSRLVKDALRQLSQAEATDFCKVLVVEFINEICPESGGVSSEFFHCMFEEMTKPEYGMFMYPEMGSCMWFPAKPKPEKKRYFLFGMLCGLSLFNLNVANLPFPLALYKKLLDQKPSLEDLKELSPRLGKSLQEVLDDAADDIGDALCIRFSIHWDQNDVDLIPNGISIPVDQTNKRDYVSKYIDYIFNVSVKAVYEEFQRGFYRVCEKEILRHFYPEELMTAIIGNTDYDWKQFEQNSKYEQGYQKSHPTIQLFWKAFHKLTLDEKKKFLFFLTGRDRLHARGIQKMEIVFRCPETFSERDHPTSITCHNILSLPKYSTMERMEEALQVAINNNRGFVSPMLTQS
notes: domain: HECT domain; His- and Avi-tagged for selection and ELISA; also called H6
B5: HACE1 HECT domain (enzyme, human, UniProt Q8IYU2 529-909, looked up)
chain: EWFYEHLHSGQPDSDMVHRPVNENDILLVHRDSIFRSSCEVVSKANCAKLKQGIAVRFHGEEGMGQGVVREWFDILSNEIVNPDYALFTQSADGTTFQPNSNSYVNPDHLNYFRFAGQILGLALNHRQLVNIYFTRSFYKHILGIPVNYQDVASIDPEYAKNLQWILDNDISDLGLELTFSVETDVFGAMEEVPLKPGGGSILVTQNNKAEYVQLVTELRMTRAIQPQINAFLQGFHMFIPPSLIQLFDEYELELLLSGMPEIDVSDWIKNTEYTSGYEREDPVIQWFWEVVEDITQEERVLLLQFVTGSSRVPHGGFANIMGGSGLQNFTIAAVPYTPNLLPTSSTCINMLKLPEYPSKEILKDRLLVALHCGSYGYTMA
notes: domain: HECT domain; His- and Avi-tagged for selection and ELISA
B6: HUWE1 HECT domain (enzyme, human, UniProt Q7Z6Z7 3993-4374, looked up)
chain: DFDVKRKYFRQELERLDEGLRKEDMAVHVRRDHVFEDSYRELHRKSPEEMKNRLYIVFEGEEGQDAGGLLREWYMIISREMFNPMYALFRTSPGDRVTYTINPSSHCNPNHLSYFKFVGRIVAKAVYDNRLLECYFTRSFYKHILGKSVRYTDMESEDYHFYQGLVYLLENDVSTLGYDLTFSTEVQEFGVCEVRDLKPNGANILVTEENKKEYVHLVCQMRMTGAIRKQLAAFLEGFYEIIPKRLISIFTEQELELLISGLPTIDIDDLKSNTEYHKYQSNSIQIQWFWRALRSFDQADRAKFLQFVTGTSKVPLQGFAALEGMNGIQKFQIHRDDRSTDRLPSAHTCFNQLDLPAYESFEKLRHMLLLAIQECSEGFGLA
notes: as for B5
B7: UBE3C HECT domain (enzyme, human, UniProt Q15386 693-1083, looked up)
chain: VPFEERVKIFQRLIYADKQEVQGDGPFLDGINVTIRRNYIYEDAYDKLSPENEPDLKKRIRVHLLNAHGLDEAGIDGGGIFREFLNELLKSGFNPNQGFFKTTNEGLLYPNPAAQMLVGDSFARHYYFLGRMLGKALYENMLVELPFAGFFLSKLLGTSADVDIHHLASLDPEVYKNLLFLKSYEDDVEELGLNFTVVNNDLGEAQVVELKFGGKDIPVTSANRIAYIHLVADYRLNRQIRQHCLAFRQGLANVVSLEWLRMFDQQEIQVLISGAQVPISLEDLKSFTNYSGGYSADHPVIKVFWRVVEGFTDEEKRKLLKFVTSCSRPPLLGFKELYPAFCIHNGGSDLERLPTASTCMNLLKLPEFYDETLLRSKLLYAIECAAGFELS
notes: as for B5
B8: HECTD1 HECT domain (enzyme, human, UniProt Q9ULT8 2151-2610, looked up)
chain: IHADRKSVLEVEFLGEEGTGLGPTLEFYALVAAEFQRTDLGAWLCDDNFPDDESRHVDLGGGLKPPGYYVQRSCGLFTAPFPQDSDELERITKLFHFLGIFLAKCIQDNRLVDLPISKPFFKLMCMGDIKSNMSKLIYESRGDRDLHCTESQSEASTEEGHDSLSVGSFEEDSKSEFILDPPKPKPPAWFNGILTWEDFELVNPHRARFLKEIKDLAIKRRQILSNKGLSEDEKNTKLQELVLKNPSGSGPPLSIEDLGLNFQFCPSSRIYGFTAVDLKPSGEDEMITMDNAEEYVDLMFDFCMHTGIQKQMEAFRDGFNKVFPMEKLSSFSHEEVQMILCGNQSPSWAAEDIINYTEPKLGYTRDSPGFLRFVRVLCGMSSDERKAFLQFTTGCSTLPPGGLANLHPRLTVVRKVDATDASYPSVNTCVHYLKLPEYSSEEIMRERLLAATMEKGFHLN
notes: as for B5
B9: EDD1 HECT domain (enzyme, human, UniProt O95071 2462-2799, looked up)
chain: LDLGLVDSSEKVQQENRKRHGSSRSVVDMDLDDTDDGDDNAPLFYQPGKRGFYTPRPGKNTEARLNCFRNIGRILGLCLLQNELCPITLNRHVIKVLLGRKVNWHDFAFFDPVMYESLRQLILASQSSDADAVFSAMDLAFAIDLCKEEGGGQVELIPNGVNIPVTPQNVYEYVRKYAEHRMLVVAEQPLHAMRKGLLDVLPKNSLEDLTAEDFRLLVNGCGEVNVQMLISFTSFNDESGENAEKLLQFKRWFWSIVEKMSMTERQDLVYFWTSSPSLPASEEGFQPMPSITIRPPDDQHLPTANTCISRLYVPLYSSKQILKQKLLLAIKTKNFGFV
notes: as for B5
B10: KIAA0317 HECT domain (enzyme, human, UniProt O15033 436-823, looked up)
chain: SETFQDKVNFFQRELRQVHMKRPHSKVTLKVSRHALLESSLKATRNFSISDWSKNFEVVFQDEEALDWGGPRREWFELICKALFDTTNQLFTRFSDNNQALVHPNPNRPAHLRLKMYEFAGRLVGKCLYESSLGGAYKQLVRARFTRSFLAQIIGLRMHYKYFETDDPEFYKSKVCFILNNDMSEMELVFAEEKYNKSGQLDKVVELMTGGAQTPVTNANKIFYLNLLAQYRLASQVKEEVEHFLKGLNELVPENLLAIFDENELELLMCGTGDISVSDFKAHAVVVGGSWHFREKVMRWFWTVVSSLTQEELARLLQFTTGSSQLPPGGFAALCPSFQIIAAPTHSTLPTAHTCFNQLCLPTYDSYEEVHRMLQLAISEGCEGFGML
notes: as for B5
B11: SMURF1 HECT domain (enzyme, human, UniProt Q9HCE7 374-757, looked up)
chain: YERDLVQKLKVLRHELSLQQPQAGHCRIEVSREEIFEESYRQIMKMRPKDLKKRLMVKFRGEEGLDYGGVAREWLYLLCHEMLNPYYGLFQYSTDNIYMLQINPDSSINPDHLSYFHFVGRIMGLAVFHGHYINGGFTVPFYKQLLGKPIQLSDLESVDPELHKSLVWILENDITPVLDHTFCVEHNAFGRILQHELKPNGRNVPVTEENKKEYVRLYVNWRFMRGIEAQFLALQKGFNELIPQHLLKPFDQKELELIIGGLDKIDLNDWKSNTRLKHCVADSNIVRWFWQAVETFDEERRARLLQFVTGSTRVPLQGFKALQGSTGAAGPRLFTIHLIDANTDNLPKAHTCFNRIDIPPYESYEKLYEKLLTAVEETCGFAVE
notes: domain: HECT domain; His- and Avi-tagged for selection and ELISA; also called S1
B12: HECW1 HECT domain (enzyme)
chain: not shown
notes: as for B5
B13: HECW2 HECT domain (enzyme)
chain: not shown
notes: as for B5

Target: T1, Wild Type Ub (human, UniProt P0CG48 1-76)
T1 construct: native (tag-free) WT ubiquitin was the analyte in BLI; also called wt Ub; WT ubiquitin
Test: ELISA on immobilized HECT domain
Description: Proteins in study were immobilized on 384-well MaxiSorp plates (Thermo Scientific 12665347) by adding 30 μL of 1 μM proteins for overnight incubation at 4° C. Phage and protein ELISA against immobilized proteins was performed as described (Ernst et al., 2013). Binding of phage was detected using anti-M13-HRP antibody (GE Healthcare 27942101) and binding of FLAG-tagged UbVs was detected using anti-FLAG-HRP antibody (Sigma-Aldrich A8592). […] EC₅₀ values were calculated using the GraphPad Prism software with the built-in equation formula (non-linear regression curve).

Q: Does B1 bind?
A: no binding

Q: Does B2 bind?
A: no binding

Q: Does B3 bind?
A: no binding

Q: Does B4 bind?
A: no binding

Q: Does B5 bind?
A: no binding

Q: Does B6 bind?
A: no binding

Q: Does B7 bind?
A: no binding

Q: Does B8 bind?
A: no binding

Q: Does B9 bind?
A: no binding

Q: Does B10 bind?
A: no binding

Q: Does B11 bind?
A: no binding

Q: Does B12 bind?
A: no binding

Q: Does B13 bind?
A: no binding
